This assay addresses T1, BFL-1ΔC C4S/C19S/C55S / FITC-BID BH3 (Homo sapiens, UniProt Q16548, C19S/C4S/C55S).
T1 construct: Recombinant anti-apoptotic BFL-1ΔC (aa 1-151) and its cysteine to serine mutants were cloned into PET17b; hexahistidine (N); made in house; host or cells: Escherichia coli LOBSTR BL21(DE3)
T1 sequence (Q16548 1-151 C4S/C19S/C55S): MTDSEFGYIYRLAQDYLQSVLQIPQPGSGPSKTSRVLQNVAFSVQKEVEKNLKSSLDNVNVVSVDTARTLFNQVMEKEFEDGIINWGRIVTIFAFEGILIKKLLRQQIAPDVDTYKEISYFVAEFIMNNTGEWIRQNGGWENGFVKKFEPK
Description: Competitive fluorescence polarization binding assay, BFL-1ΔC C4S/C19S/C55S. The protocol:
Fluorescence polarization (FP) assays were performed as previously described (Pitter et al., 2008 (supra)). Briefly, direct binding curves were first generated by FITC-BID BH3 (25 nM) with serial dilutions of anti-apoptotic protein, and FP was measured at 5 min on a SpectraMax M5 microplate reader (Molecular Devices). For competition assays, a serial dilution of acetylated or warhead-bearing NOXA SAHB was added to the indicated recombinant protein at ˜EC75 concentration, as determined by the direct binding assay. FITC-BID BH3 (25 nM) was then added and fluorescence polarization was measured at equilibrium. IC50 values were calculated by nonlinear regression analysis of competitive binding curves using PRISM software (GraphPad).

For the substance JAT8LREFGDXLNFRQ [D-NA-NOXA-15 R31E], the “competition for FITC-BID BH3 binding to BFL-1ΔC C4S/C19S/C55S” value is reported as “neither D-NA- nor Ac-NOXA15 R31E competes”.

The values above are taken from patent publication US12466853B2, “Selective targeting of apoptosis proteins by structurally-stabilized and/or cysteine-reactive NOXA peptides” (priority 2017, dated 2025).
